Experimental data taken from publication PMC11643744, “New Conjugates of Vancomycin with Cell-Penetrating Peptides—Synthesis, Antimicrobial Activity, Cytotoxicity, and BBB Permeability Studies” (Molecules, 2024).
Peptide text beside a SMILES is read from it. * marks the point of attachment. Propioloyl = C#CC(=O)*

Key:
[1] = system: normal human fibroblasts, BJ line (CRL-2522); assay: Neutral red cytotoxicity assay
Protocol: Normal human fibroblasts, BJ line (CRL-2522™), Eagle’s Minimum Essential Medium (EMEM), and fetal bovine serum (FBS) were obtained from ATCC (Manassas, VA, USA). Cells were grown following ATCC guidelines in an EMEM medium supplemented with 10% FBS at 37 °C in a humidified atmosphere of 95% air and 5% CO2 in a HeraCell 150 incubator (Heraeus, Hanau, Germany).
The assay was performed as per previously published protocols with slight modifications. In brief, BJ cells were plated in 96-well tissue culture plates (Nest Scientific Biotechnology, Wuxi, China) at a density of 6 × 10^3 cells per well and allowed to attach for 24 h in EMEM supplemented with 10% FBS. After the incubation period, the medium was removed, and 10% dimethyl sulfoxide (DMSO)-treated cells (Sigma-Aldrich, St. Louis, MO, USA) were used as a positive control, while nontreated cells served as a negative control.
The cells were treated with peptides suspended in EMEM medium supplemented with 10% FBS and incubated for 24 h at 37 °C in a humidified atmosphere of 95% air and 5% CO2. After the incubation, the supernatants were discarded and replaced with 100 µL of non-supplemented EMEM containing 0.33% neutral red (Sigma-Aldrich) diluted 1:40. The cells were incubated for an additional 2 h at 37 °C. Following incubation, the neutral red medium was removed, and the cells were washed with 100 µL of phosphate-buffered saline (PBS) per well.
To extract the dye into the solution, the cells were treated with 150 µL of a solution containing 50% ethanol (Alchem, Torun, Poland), 49% distilled H2O, and 1% acetic acid (Alchem, Torun, Poland) and incubated under shaking at 37 °C for 10 min. Absorbance was measured at 540 nm using a Synergy H1 plate reader (BioTek Instruments, Winooski, VT, USA). The assay was performed in triplicate to ensure reproducibility.

in vitro = assay: in vitro
Excerpt: This assay utilized a 96-well plate assembly consisting of a filter plate pre-coated with polar brain lipids (donor plate) and a receiver plate (acceptor plate). The phospholipid mixture used to coat the membrane was extracted from porcine polar brain lipids, with the following composition: 12.6% phosphatidylcholine, 33.1% phosphatidylethanolamine, 18.5% phosphatidylserine, 4.1% phosphatidylinositol, 0.8% phosphatidic acid, and 30.9% of other compounds, including cerebrosides, sulfatides, and pigments.
In each well of the donor filtration plate (Multiscreen Filter Plate, PVDF with a pore size of 0.45 µm), 5 µL of the phospholipid mixture in n-dodecane (20 mg/mL) was carefully applied to form the artificial membrane. After coating, 200 µL of phosphate-buffered saline (PBS at pH 7.4) containing 5% dimethyl sulfoxide (DMSO) as a co-solvent, and the test compound (at a concentration of 20 µM) was added to each well of the donor plate (in triplicate). […] The plate lid was then replaced and the resulting assembled donor–acceptor plates were incubated at room temperature for 20 h. After this time, the donor plate was removed and solutions from each well of both acceptor and donor plates were collected for further analysis. The concentrations of the tested compounds were determined by LC-MS. The analysis was conducted by UHPLC-MS system (Shimadzu Nexera X2 with LCMS-2020 detector) using a ReproSil Pure 120 ODS-3 column (Dr. Maisch GmbH, 100 × 2 mm, 2.4 µm particle size) with several gradients of ACN with 0.1% FA and 0.05% TFA at a flow rate of 0.3 mL/min. The eluted solution was monitored by an ESI-MS detector operated in a selected ion monitoring mode (SIM). […] CE=CD×VD+CA×VA/VD+VA

For `C[S+](C)[O-]` [DMSO, dimethyl sulfoxide, reference compound], the cell viability [1] was “approximately 21%”.

With `O=C(O)Cc1ccccc1Nc1c(Cl)cccc1Cl` [Diclofenac, reference compound] the “R, mass retention” value (in vitro; PAMPA, 20 h, 20 µM, pH 7.4) was 12.0 ± 3.3% and the Papp at 20 h, 20 µM (in vitro; PAMPA, pH 7.4) was 3.44 ± 0.1 ×10⁻⁶ cm/s.

For `CC[C@H](C)[C@H](NC(=O)[C@H](CCCCN)NC(=O)[C@H](CCCCN)NC(=O)[C@H](C)NC(=O)[C@H](CC(C)C)NC(=O)[C@H](C)NC(=O)[C@H](C)NC(=O)[C@H](CC(C)C)NC(=O)[C@H](C)NC(=O)[C@H](CCCCN)NC(=O)[C@H](CC(C)C)NC(=O)[C@H](CC(N)=O)NC(=O)[C@@H](NC(=O)[C@H](CCCCN)NC(=O)CNC(=O)[C@H](CC(C)C)NC(=O)[C@H](CC(C)C)NC(=O)[C@H](Cc1ccc(O)cc1)NC(=O)CNC(=O)[C@H](C)NC(=O)c1cn(CCOCCOCCOCCNC(=O)[C@H]2NC(=O)[C@H]3NC(=O)[C@H](NC(=O)[C@@H]4NC(=O)[C@H](CC(N)=O)NC(=O)[C@H](NC(=O)[C@@H](CC(C)C)NC)[C@H](O)c5ccc(c(Cl)c5)Oc5cc4cc(c5O[C@@H]4O[C@H](CO)[C@@H](O)[C@H](O)[C@H]4O[C@H]4C[C@](C)(N)[C@H](O)[C@H](C)O4)Oc4ccc(cc4Cl)[C@H]3O)c3ccc(O)c(c3)-c3c(O)cc(O)cc32)nn1)[C@@H](C)CC)C(=O)N[C@@H](CC(C)C)C(N)=O` [compound 2], the “concentration above which cytotoxicity was shown” value ([1]; 24 h) was “above 64 µg/mL”, the “R, mass retention” value (in vitro; 20 h incubation, mean ± SEM) was 10.0 ± 0.6% and the Papp at 20 h, 20 µM (in vitro; pig, PAMPA, pH 7.4, Pe, effective permeability coefficient, 20 h incubation, 20 µM, pH 7.4, mean ± SEM) was 0.187 ×10⁻⁶ cm/s.

In the case of `CN[C@H](CC(C)C)C(=O)N[C@H]1C(=O)N[C@@H](CC(N)=O)C(=O)N[C@H]2C(=O)N[C@H]3C(=O)N[C@H](C(=O)N[C@H](C(=O)NCCOCCOCCOCCn4cc(C(=O)N[C@@H](Cc5ccc(O)cc5)C(=O)NCC(=O)N[C@@H](CCCNC(=N)N)C(=O)N[C@@H](CCCCN)C(=O)N[C@@H](CCCCN)C(=O)N[C@@H](CCCNC(=N)N)C(=O)N[C@@H](CCCNC(=N)N)C(=O)N[C@@H](CCC(N)=O)C(=O)N[C@@H](CCCNC(=N)N)C(=O)N[C@@H](CCCNC(=N)N)C(=O)N[C@@H](CCCNC(=N)N)C(N)=O)nn4)c4cc(O)cc(O)c4-c4cc3ccc4O)[C@H](O)c3ccc(c(Cl)c3)Oc3cc2cc(c3O[C@@H]2O[C@H](CO)[C@@H](O)[C@H](O)[C@H]2O[C@H]2C[C@](C)(N)[C@H](O)[C@H](C)O2)Oc2ccc(cc2Cl)[C@H]1O` [compound 5], the “R, mass retention” value (in vitro; 20 h incubation, mean ± SEM) is reported as 8.7 ± 3.8%.

In the case of `CN[C@H](CC(C)C)C(=O)N[C@H]1C(=O)N[C@@H](CC(N)=O)C(=O)N[C@H]2C(=O)N[C@H]3C(=O)N[C@H](C(=O)N[C@H](C(=O)O)c4cc(O)cc(O)c4-c4cc3ccc4O)[C@H](O)c3ccc(c(Cl)c3)Oc3cc2cc(c3O[C@@H]2O[C@H](CO)[C@@H](O)[C@H](O)[C@H]2O[C@H]2C[C@](C)(NC(=O)CCOCCOCCOCCOCCn3cc(C(=O)N[C@@H](Cc4ccc(O)cc4)C(=O)NCC(=O)N[C@@H](CCCNC(=N)N)C(=O)N[C@@H](CCCCN)C(=O)N[C@@H](CCCCN)C(=O)N[C@@H](CCCNC(=N)N)C(=O)N[C@@H](CCCNC(=N)N)C(=O)N[C@@H](CCC(N)=O)C(=O)N[C@@H](CCCNC(=N)N)C(=O)N[C@@H](CCCNC(=N)N)C(=O)N[C@@H](CCCNC(=N)N)C(N)=O)nn3)[C@H](O)[C@H](C)O2)Oc2ccc(cc2Cl)[C@H]1O` [compound 6], the “R, mass retention” value (in vitro; 20 h incubation, mean ± SEM) is reported as 77.7 ± 0.3%.

In the case of `CN[C@H](CC(C)C)C(=O)N[C@H]1C(=O)N[C@@H](CC(N)=O)C(=O)N[C@H]2C(=O)N[C@H]3C(=O)N[C@H](C(=O)N[C@H](C(=O)NCCSSCCn4cc(C(=O)N[C@@H](Cc5ccc(O)cc5)C(=O)NCC(=O)N[C@@H](CCCNC(=N)N)C(=O)N[C@@H](CCCCN)C(=O)N[C@@H](CCCCN)C(=O)N[C@@H](CCCNC(=N)N)C(=O)N[C@@H](CCCNC(=N)N)C(=O)N[C@@H](CCC(N)=O)C(=O)N[C@@H](CCCNC(=N)N)C(=O)N[C@@H](CCCNC(=N)N)C(=O)N[C@@H](CCCNC(=N)N)C(N)=O)nn4)c4cc(O)cc(O)c4-c4cc3ccc4O)[C@H](O)c3ccc(c(Cl)c3)Oc3cc2cc(c3O[C@@H]2O[C@H](CO)[C@@H](O)[C@H](O)[C@H]2O[C@H]2C[C@](C)(N)[C@H](O)[C@H](C)O2)Oc2ccc(cc2Cl)[C@H]1O` [compound 7], the “R, mass retention” value (in vitro; 20 h incubation, mean ± SEM) is reported as 23.8 ± 4.9%.

With `CN[C@H](CC(C)C)C(=O)N[C@H]1C(=O)N[C@@H](CC(N)=O)C(=O)N[C@H]2C(=O)N[C@H]3C(=O)N[C@H](C(=O)N[C@H](C(=O)O)c4cc(O)cc(O)c4-c4cc3ccc4O)[C@H](O)c3ccc(c(Cl)c3)Oc3cc2cc(c3O[C@@H]2O[C@H](CO)[C@@H](O)[C@H](O)[C@H]2O[C@H]2C[C@](C)(NC(=O)CCC(=O)NCCSSCCn3cc(C(=O)N[C@@H](Cc4ccc(O)cc4)C(=O)NCC(=O)N[C@@H](CCCNC(=N)N)C(=O)N[C@@H](CCCCN)C(=O)N[C@@H](CCCCN)C(=O)N[C@@H](CCCNC(=N)N)C(=O)N[C@@H](CCCNC(=N)N)C(=O)N[C@@H](CCC(N)=O)C(=O)N[C@@H](CCCNC(=N)N)C(=O)N[C@@H](CCCNC(=N)N)C(=O)N[C@@H](CCCNC(=N)N)C(N)=O)nn3)[C@H](O)[C@H](C)O2)Oc2ccc(cc2Cl)[C@H]1O` [compound 8] the “R, mass retention” value (in vitro; 20 h incubation, mean ± SEM) was 31.5 ± 1.5%.

For `C#CC(=O)N[C@@H](Cc1ccc(O)cc1)C(=O)N[C@@H](C)C(=O)N[C@@H](CCCNC(=N)N)C(=O)N[C@@H](C)C(=O)N[C@@H](C)C(=O)N[C@@H](C)C(=O)N[C@@H](CCCNC(=N)N)C(=O)N[C@@H](CCC(N)=O)C(=O)N[C@@H](C)C(=O)N[C@@H](CCCNC(=N)N)C(=O)N[C@@H](C)C(N)=O` [compound 9] (Propioloyl-YARAAARQARA-NH2), the “R, mass retention” value (in vitro; 20 h incubation, mean ± SEM) was 6.7 ± 1.5%.

With `CN[C@H](CC(C)C)C(=O)N[C@H]1C(=O)N[C@@H](CC(N)=O)C(=O)N[C@H]2C(=O)N[C@H]3C(=O)N[C@H](C(=O)N[C@H](C(=O)NCCOCCOCCOCCn4cc(C(=O)N[C@@H](CCCNC(=N)N)C(=O)N[C@@H](CCCNC(=N)N)C(=O)N[C@@H](CCCNC(=N)N)C(=O)N[C@@H](CCCNC(=N)N)C(=O)N[C@@H](CCCNC(=N)N)C(=O)N[C@@H](CCCNC(=N)N)C(=O)N[C@@H](CCCNC(=N)N)C(=O)N[C@@H](CCCNC(=N)N)C(=O)N[C@@H](CCCNC(=N)N)C(N)=O)nn4)c4cc(O)cc(O)c4-c4cc3ccc4O)[C@H](O)c3ccc(c(Cl)c3)Oc3cc2cc(c3O[C@@H]2O[C@H](CO)[C@@H](O)[C@H](O)[C@H]2O[C@H]2C[C@](C)(N)[C@H](O)[C@H](C)O2)Oc2ccc(cc2Cl)[C@H]1O` [compound 15] the “R, mass retention” value (in vitro; 20 h incubation, mean ± SEM) was 2.7 ± 0.9%.

With `CN[C@H](CC(C)C)C(=O)N[C@H]1C(=O)N[C@@H](CC(N)=O)C(=O)N[C@H]2C(=O)N[C@H]3C(=O)N[C@H](C(=O)N[C@H](C(=O)O)c4cc(O)cc(O)c4-c4cc3ccc4O)[C@H](O)c3ccc(c(Cl)c3)Oc3cc2cc(c3O[C@@H]2O[C@H](CO)[C@@H](O)[C@H](O)[C@H]2O[C@H]2C[C@](C)(NC(=O)CCOCCOCCOCCOCCn3cc(C(=O)N[C@@H](CCCNC(=N)N)C(=O)N[C@@H](CCCNC(=N)N)C(=O)N[C@@H](CCCNC(=N)N)C(=O)N[C@@H](CCCNC(=N)N)C(=O)N[C@@H](CCCNC(=N)N)C(=O)N[C@@H](CCCNC(=N)N)C(=O)N[C@@H](CCCNC(=N)N)C(=O)N[C@@H](CCCNC(=N)N)C(=O)N[C@@H](CCCNC(=N)N)C(N)=O)nn3)[C@H](O)[C@H](C)O2)Oc2ccc(cc2Cl)[C@H]1O` [compound 16] the “R, mass retention” value (in vitro; 20 h incubation, mean ± SEM) was 37.3 ± 4.8%.
